{"source": "patent US20230405140A1", "about": "(MCSAF INSIDE ONCOLOGY, published 2023)", "binders": {"B1": {"name": "MF-m906-MMAE (antibody, human IgG1, kappa)", "heavy": "not shown", "light": "DVVMTQSPLSLPVTPGEPASISCRSSQSLLHSNGYNFLDWYLQKPGQSPQLLIYLGSNRASGVPDRFSGSGSGTDFTLKISRVEADDVGVYYCMQSLQTPWTFGHGTKVEIKRTVAAPSVFIFPPSDEQLKSGTASVVCLLNNFYPREAKVQWKVDNALQSGNSQESVTEQDSKDSTYSLSSTLTLSKADYEKHKVYACEVTHQGLSSPVTKSFNRGEC", "modifications": "MMAE linker-drug (pyridine-caproic-ValCit-PABc-MMAE, compound 8) grafted on interchain cysteines; mean DAR 3.89"}, "B2": {"name": "MIO-003 (antibody, human IgG1, kappa, N297A)", "heavy": "not shown", "light": "B1 light", "modifications": "MMAE linker-drug (pyridine-caproic-ValCit-PABc-MMAE) as in MIO-001; attachment residues not itemised"}, "B3": {"name": "m906 (antibody, human IgG1, kappa)", "heavy": "not shown", "light": "B1 light", "notes": "also called mAb-001; anti-CD56 antibody m906"}}, "key": {"[1]": {"target": "T1, CD56 (UniProt P13591 20-858, limits assumed)", "test": "cell-based or functional assay"}, "[2]": {"target": "T1, CD56", "test": "cell-based or functional assay", "remark": "listed apart in the source"}, "[3]": {"target": "T1, CD56", "test": "cell-based or functional assay", "remark": "listed apart in the source"}, "[4]": {"target": "T2, HER2 (UniProt P04626 23-1255, limits assumed)", "T2 construct": "whole, on cells; SK-BR-3 (SKBR3) cells, CD56-negative control line", "test": "immunocytochemistry with peroxidase secondary antibody, SKBR3 cells (HER2-positive, no CD56); '-' = absence of fixation"}}}
{"binder": "B1", "values": [{"measurement": "IC50, XTT cytotoxicity test, H69 small cell lung carcinoma line", "setting": "[1]", "result": "1 to 2", "unit": "nM"}]}
{"binder": "B2", "values": [{"measurement": "IC50 (pM), XTT assay, PeTa n = 3", "setting": "[2]", "result": 14900, "unit": "pM"}, {"measurement": "IC50 (pM), XTT assay, WaGa n = 3", "setting": "[2]", "result": 10300, "unit": "pM"}, {"measurement": "IC50 (pM), XTT assay, H69 n = 3", "setting": "[3]", "result": 1950, "unit": "pM"}, {"measurement": "IC50 (pM), XTT assay, H209 n = 3", "setting": "[3]", "result": 22100, "unit": "pM"}]}
{"binder": "B3", "values": [{"measurement": "binding result", "setting": "[4]", "result": "no binding (tested: 650 ng/mL)"}]}
